Results: patent publication US12624112 (MABWELL SHANGHAI BIOSCIENCE, dated 2026)
Blank lines part the entries; values can stand above or below the molecule they belong to.

Legend:
Human ST2-fc (human) [1] = target: Human ST2-fc (human) (UniProt Q01638); test: competition ELISA, coated ST2-fc, competitor IL33-his
Human ST2-fc (human) [2] = target: Human ST2-fc (human) (UniProt Q01638); test: competition ELISA: human ST2-fc coated, antibody titrated in a mixture with human IL33-his (blocked ligand), bound IL33-his detected with an anti-His secondary antibody, OD450-OD650 [continued), 9-5]
Human ST2-fc (human) [3] = target: Human ST2-fc (human) (UniProt Q01638); test: competition ELISA: human ST2-fc coated, antibody titrated in a mixture with human IL33-his (blocked ligand), bound IL33-his detected with an anti-His secondary antibody, OD450-OD650 [continued), 9-7]
[4] = target: T1, ST2 on the effector cells (KU812, KU812/NF-κB-1#, HUVEC, HMC-1) (human, UniProt Q01638 19-556); test: cell-based or functional assay
T1 sequence (looked up): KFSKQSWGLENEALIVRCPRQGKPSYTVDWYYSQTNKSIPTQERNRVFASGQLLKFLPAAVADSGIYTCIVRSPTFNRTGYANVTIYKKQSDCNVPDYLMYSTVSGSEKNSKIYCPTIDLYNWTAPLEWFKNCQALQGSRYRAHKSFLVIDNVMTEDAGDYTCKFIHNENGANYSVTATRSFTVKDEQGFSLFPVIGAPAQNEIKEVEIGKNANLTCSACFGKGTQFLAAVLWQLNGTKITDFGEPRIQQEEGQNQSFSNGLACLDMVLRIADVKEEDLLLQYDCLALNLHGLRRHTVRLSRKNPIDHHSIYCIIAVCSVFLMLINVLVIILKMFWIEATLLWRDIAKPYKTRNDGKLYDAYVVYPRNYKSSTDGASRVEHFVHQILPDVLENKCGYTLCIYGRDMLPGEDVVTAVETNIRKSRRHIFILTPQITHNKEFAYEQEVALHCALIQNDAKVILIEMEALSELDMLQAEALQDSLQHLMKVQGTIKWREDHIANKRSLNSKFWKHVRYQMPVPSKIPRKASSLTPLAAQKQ

[5] = target: T1, ST2 on the effector cells (KU812, …); test: cell-based or functional assay; remark: listed apart in the source
[6] = target: T1, ST2 on the effector cells (KU812, …); test: cell-based or functional assay; remark: listed apart in the source
[7] = target: T1, ST2 on the effector cells (KU812, …); test: cell-based or functional assay; remark: listed apart in the source
[8] = target: T1, ST2 on the effector cells (KU812, …); test: cell-based or functional assay; remark: listed apart in the source
[9] = target: T1, ST2 on the effector cells (KU812, …); test: cell-based or functional assay; remark: listed apart in the source
Human ST2-his [10] = target: T2, Human ST2-his (human, UniProt Q01638-2 19-328, limits assumed); test: SPR Biacore X100, ratio of kd at pH 5.5 to kd at pH 7.4
T2 construct: Expressed in CHO-K1; The printed range starts at Met1; also called human ST2 fused with a 6-histidine tag at the C-terminus
T2 sequence: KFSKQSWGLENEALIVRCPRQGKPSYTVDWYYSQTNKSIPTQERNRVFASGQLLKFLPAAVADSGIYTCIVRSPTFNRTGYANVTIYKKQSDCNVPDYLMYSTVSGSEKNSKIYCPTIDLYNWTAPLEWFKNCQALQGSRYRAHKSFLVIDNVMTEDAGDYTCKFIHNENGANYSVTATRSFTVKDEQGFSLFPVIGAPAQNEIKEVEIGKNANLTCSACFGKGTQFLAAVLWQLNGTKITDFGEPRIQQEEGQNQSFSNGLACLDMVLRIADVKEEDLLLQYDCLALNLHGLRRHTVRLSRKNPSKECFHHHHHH
Summary of the method: (§1)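 Antibody (2 µg/mL) captured 60 s on protein A; human ST2-his injected at six 2-fold dilutions from 20 nM, association 180 s, dissociation 700 s. Kinetics fitted to 1:1 binding model; glycine pH 2.0 regeneration.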

Human ST2-his [11] = target: T2, Human ST2-his; test: SPR Biacore X100, antibody captured on protein A chip, human ST2-his injected, pH 7.4
Summary of the method: as §1

Human ST2-his [12] = target: T2, Human ST2-his; test: SPR Biacore X100, antibody captured on protein A chip, human ST2-his injected, pH 7.4; pH 7.4
Experimental: The experiment on the interaction between the anti-human ST2 antibodies and human ST2-his was performed using Biacore X100.
Each anti-human ST2 antibody was diluted to 2 µg/mL and captured on the surface of a protein A chip for a capture time of 60 s. Following the antibody capture, a solution of human ST2-his (2-fold gradient dilution from a starting concentration of 20 nM, to obtain 6 concentrations in total) was injected. Association was monitored for 180 s and dissociation was monitored for 700 s, and the sensor surface was regenerated by injecting a solution of glycine at pH 2.0. Kinetic data were analyzed using a simple 1:1 binding model.

Human ST2-his [13] = target: T2, Human ST2-his; test: SPR Biacore X100, antibody captured on protein A chip, human ST2-his injected, dissociation at pH 5.5
Summary of the method: as §1

Maximum inhibition rate (Human ST2-fc (human) [1]): 92.5% | IC50 (read off the curve) (Human ST2-fc (human) [2]): 1 µg/mL | IC50 (read off the curve) (Human ST2-fc (human) [3]): 0.9 µg/mL
Molecule: Control antibody CNTO7160

Maximum inhibition rate, KU812-IL5 production by IL-33 [4]: 97.5% | IC50, inhibition of activation of KU812-NF-κB reporter gene by IL33 [5]: 0.2 µg/mL | Maximum inhibition rate, KU812-NF-κB reporter gene [5]: 88.2% | IC50, inhibition of KU812-IL5 production promoted by oxidized IL33 [6]: 0.0221 µg/mL | Maximum inhibition rate, KU812-IL5 production by oxidized IL33 [6]: 98.9% | Relative activity, KU812-IL5 production by oxidized IL33 [6]: 100% | IC50, inhibition of KU812-IL5 production promoted by reduced IL33 [7]: 1.47 µg/mL | Maximum inhibition rate, KU812-IL5 production by reduced IL33 [7]: 97.3% | Relative activity, KU812-IL5 production by reduced IL33 [7]: 100% | IC50, inhibition of HUVEC-IL6 production promoted by IL33 [8]: 2.73 µg/mL | Maximum inhibition rate, HUVEC-IL6 production by IL33 [8]: 66.6% | Relative activity, HUVEC-IL6 production by IL33 [8]: 100% | IC50, inhibition of HMC-1 IL8 production promoted by IL33 [9]: 0.101 µg/mL | Maximum inhibition rate, HMC-1 IL8 production by IL33 [9]: 82.3% | kd ratio of pH 5.5/pH 7.4 (Human ST2-his [10]): 1.53 | koff (Human ST2-his [11]): 0.000175 s⁻¹ | kon (Human ST2-his [11]): 763000 M⁻¹ s⁻¹ | Kd (Human ST2-his [12]): 229 pM | Kd (Human ST2-his [13]): 395 pM | koff (Human ST2-his [13]): 0.000267 s⁻¹ | kon (Human ST2-his [13]): 676000 M⁻¹ s⁻¹
B1: Control antibody CNTO7160 (antibody, human IgG4 S228P, kappa, V domains shown)
VH: EVQLLESGGGLVQPGGSLRLSCAASGFTFSIYDMIWVRQAPGKGLEWVSSIRGEGGGTYYADSVKGRFTISRDNSKNTLYLQMNSLRAEDTAVYYCARDPWSTEGSFFVLDYWGQGTLVTVSS
VL: EIVLTQSPATLSLSPGERATLSCRASQSVDDDLAWYQQKPGQAPRLLIYDASNRATGIPARFSGSGSGTDFTLTISSLEPEDFAVYYCQQYITAPLTFGQGTKVEIKR
notes: Known anti-ST2 control antibody
